Test [1] deals with RBDSARS-CoV-2 (SARS-CoV-2 S protein residues 319-539, C-terminal His-tag) (SARS-CoV-2, UniProt P0DTC2 319-539). Nature of the test: ELISA. In general terms: An ELISA detects its analyte on a solid surface through an enzyme-linked reagent.
The target in test [2] is RBDSARS-CoV (SARS-CoV S protein residues 318-510, C-terminal His-tag) (SARS-CoV, UniProt P59594 318-510). Nature of the test: ELISA.

Numbering of substitutions follows the chain as printed. A value given as a limit tells only on which side of the number the result lay.

The IC50 is the concentration needed to halve the response being measured. A lower IC50 goes with inhibition by little substance.

B1: 4P-85 (VHH)
VHH: QVQLVESGGGLVQAGGSLRLSCAVSGRTVSTYGMAWFRQTPGKKERDFVATITRSEGTTFYADSVKGRFTISRDNAKNTVYLQMNSLKIEDTAVYYCAVRRDSSWGYSRDLFEYDDWGQGTQVTVSS
As to B1, the IC50 in test [1] and in test [2] was less than 0.01 µM in each case.

B2: R117 (VHH)
VHH: HVQLVESGGGLVQAGGSLRLSCAAPGRTFSTSAMGWFRQAPGKEREFVAAIDWSNTNIHYADTVKGRFTISTDTAKNTVYLQMNNLKPEDTAVYYCAQGGWGLTQPISVDYWGKGTQVTVSS
With B2, the half-maximal inhibitory concentration (IC50) in test [1] was less than 0.01 µM; in test [2], 0.1 to 1 µM.

B3: 4P-89 (VHH)
VHH: HVQLVESGGGLVQAGGSLRLSCAASGRTLTTYSMAWFRQAPGKEREVVAAITPTGFGTYYADFVKGRFTISRNSAKNTVYLQMDSLKPEDTAVYYCAARSEIIIASPTGGEYDYWGQGTQVTVSS
With B3, the values for the IC50 in test [1] and in test [2] were less than 0.01 µM and 0.01 to 0.1 µM, respectively.

B4: 5p-16 (VHH)
VHH: DVQLVESGGGLVQAGGSLRLSCLASGRTFSNYAMAWFRQSPGKEREFVAVITSGRSTDYADSVKGRFTISRDNAKNTVYLQMNSLKPEDTAVYYCAADQAPLRFSYSLSRDKYDYWGQGTQVTVSS
As for B4, the IC50 in test [1] is less than 0.01 µM; in test [2], 0.01 to 0.1 µM.

B5: 5p-17 (VHH)
VHH: B4 VHH with D1Q, L20V, L23A, T28S, N31D, A100T
Take B5: the concentration for half-maximal inhibition (IC50) in test [1] and in test [2] was less than 0.01 µM each time.

B6: 4P-12 (VHH)
VHH: B4 VHH with L23A, N31S, A33T, A35G, S40A, T52S, K112E
Consider B6, for which the figures for the IC50 in test [1] and in test [2] were less than 0.01 µM and 0.01 to 0.1 µM, respectively.

B7: 4P-19 (VHH)
VHH: HVQLVESGGGLVQAGGSLRLSCAASGRTVSSEFMGWFRQAPGKEREFVAAITWDGGSTYYTDSVKGRFTISRDNAKNTVYLQMNSLKPEDTAVYYCAADRSIFQSYYSAKYPNNYEYWGQGTQVTVSS
With B7, the concentration for half-maximal inhibition (IC50) in test [1] was less than 0.01 µM; in test [2], 0.1 to 1 µM.

B8: 4P-9 (VHH)
VHH: QVQLVESGGGLVQAGDSLRLSCTASGRTFSAYGMGWFRQAPGKEREFVAGIARSGSEYYGDSVKGRFTISRDNAKNTVYLQMASLKAEDTGVYYCAADPTILYHAISQRTQNYRHWGPGTQVTVSS
In the case of B8, the IC50 was less than 0.01 µM in test [1] and 0.1 to 1 µM in test [2].

B9: 5p-24 (VHH)
VHH: DVQLVESGGGLVQAGDSLRLSCTASGLTFSAYGMGWFRQAPGKEREFVAGIARSGSEFYGDSVKGRFTISRDNAKNTVYLQVNSLRPEDTALYYCAADRTILYHAISQRTQNYQYWGPGTQVTVSS
B9: the half-maximal inhibitory concentration (IC50) in test [1] and in test [2] was less than 0.01 µM throughout.

B10: 4P-76 (VHH)
VHH: EVQLVESGGGLVQAGDSLRLSCAASERTGINYAMGWFRQAPGKERDFVAAIGWNGSITKYAESVKGRFTLSRDDAMNTVSLQMNSLKPEDTAVYYCAARIGSIANLQYREYEFAYWGQGTQVTVSS
In the case of B10, the results for the IC50 in test [1] and in test [2] were 0.01 to 0.1 µM and 1 to 8 µM, respectively.

B11: 4P-21 (VHH)
VHH: HVQLVESGGGLAQAGGNLRLSCAASGGTFSDYAMGWFRRPPGKEREFVAAISRGGSTFYADSVKGRFTISRDNAKNTVYLQMTSLKPEDTAVYYCAADRSPLFFGVPRSHGEYDYWGQGTQVTVSS
For the molecule B11, the IC50 in test [1] and in test [2] was less than 0.01 µM each time.

B12: 4P-17 (VHH)
VHH: HVQLVESGGGLVQAGASLRLSCAASGRTASNYVMGWFRQAAGKEREFVAHISWSGDETNYADSVRGRFIISRDNAENTVYLQMNSLKPEDTAVYYCAADRGYSLMYYSSREYTYWGQGTQVTVSS
As for B12, the concentration for half-maximal inhibition (IC50) is less than 0.01 µM in test [1] and 1 to 8 µM in test [2].

B13: 5p-10 (VHH)
VHH: QVQLVESGGGLVQAGGSLRLSCAASGRTFSSSAMGWFRQAPGKDREFVAAISPSSTNTGYTDSVKGRFTISRDNTKNTVDLQMNNLKPEDTAIYYCAADANSLRYGYSQNQGRYEYWGQGTQVTVSS
With B13, the values for the IC50 in test [1] and in test [2] were less than 0.01 µM and 0.01 to 0.1 µM, respectively.

B14: 4P-74 (VHH)
VHH: HVQLVESGGGLVQAGGSLRLSCATSGRTFSTYRMSWFRQAPGKEREFVATIIWSVGSTHYADSVKGRFTISRDNAKNMVYLQMNSLKPEDTAVYYCAAQRSDSSSWGYEDDYDYWGQGTQVTVSS
In the case of B14, the concentration for half-maximal inhibition (IC50) in test [1] is less than 0.01 µM; in test [2] it was more than 8 µM.

B15: 4P-26 (VHH)
VHH: QVQLVESGGGLVQAGGSLRLSCAASGDTLRSYNMGWFRQAPGKEREFVAVISWTGVGTYYGDSVKGRFTISRDVIKNTLYLQMDSLKPEDTAIYYCAADSTTYRLHSAGSDYLYWGQGTQVTVSS
For B15, the IC50 is less than 0.01 µM in test [1] and more than 8 µM in test [2].

B16: R37 (VHH)
VHH: QVQLVESGGGLVQTGGSLRLSCAASGRTFSNYVMGWFRQAPGKEREFVSSIEWNSENTFYANSVKGRFTISRDNAKNTVYLQMNSLKAEDTAVYYCAADRGSSYYYTRASEYTYWGQGTQVTVSS
Turning to B16, the concentration for half-maximal inhibition (IC50) in test [1] and in test [2] was less than 0.01 µM throughout.

B17: 4P-28 (VHH)
VHH: QVQLVESGGGLVQAGGSLRLSCAASGRTFSHYPTGWFRQAPGKEREFVSTISESGTSTYYADSVKGRFTISRDNAKNSVYLQMNSLKPEDTALYYCAADTAGRTQYGSSWSTLDGFVYWGQGTQVTVSS
Consider B17, for which the values for the IC50 in test [1] and in test [2] were 0.01 to 0.1 µM and 1 to 8 µM, respectively.

B18: 4P-32 (VHH)
VHH: DVQLVESGGGLVQAGGSLRLTCAASGRTFSSDTMDMGWFRQAPGKERQFVAADAWNDGRTYYADSVKGRFTISRDNAKNTLYLQMNSLKPEDTAVYYCAADTYSNYEKDYSWGYWGQGTQVTVSS
B18: the IC50 in test [1] was less than 0.01 µM; in test [2], 1 to 8 µM.

B19: 4P-61 (VHH)
VHH: QVQLVESGGGLVQAGGSLRLSCAASGSTFNTRNIAWYRQAPGKQRELVAGITNAGATIYADSVKGRFTISRDNAKNTMYLQIDSLKPEDTAVYYCNRIVGTYPWGQGTQVTVSS
Take B19: the IC50 in test [1] was less than 0.01 µM; in test [2], 0.01 to 0.1 µM.

B20: R113 (VHH)
VHH: HVQLVESGGGLVQPGGSLRLSCAASGRSFNSYLMGWFRQAPGKEREFVAWISGSPHDIIRYRDSVKDRFTISRDNAKNTVYLQMNSLKPVDTAVYYCAVGSLRVGSFSPDYWGQGTQVTVSS
As to B20, the IC50 was less than 0.01 µM in test [1] and 0.01 to 0.1 µM in test [2].

B21: 4P-56 (VHH)
VHH: QVQLVESGGGLVQAGGSLRLSCAASGRTDSISDMGWFRQAPGKEREFVAVVGWSGGGTDYAHSVKGRFTISRDNAKNTVYLQMNSLKPEDTAVYYCAVGSLRVGSFSVEYWGQGTQVTVSS
notes: class IV psNb
B21: the IC50 is less than 0.01 µM in test [1] and 0.01 to 0.1 µM in test [2].

The record behind these values is US20250002563A1 (UNIVERSITY OF PITTSBURGH OF THE COMMONWEALTH SYSTEM OF …, published 2025).
